Reference: PMC4705663

What was measured:
[1] = system: BRPF1 PZP domain; assay: FRET; settings: with LexA fixed at its S1/2 (2 uM); HI-FI FRET: 25 mM Tris pH 7.5, 200 mM NaCl, 0.01% NP40 and CHAPS; EMSA: 25 mM Tris-HCl pH 7.5, 150 mM NaCl, 5 mM DTT, +/-10% glycerol, RT 30 min; NMR: 25 mM …
[2] = system: LexA; assay: FRET; settings: LexA titration; S1/2 of nucleosome unwrapping, 75 mM NaCl; HI-FI FRET: 25 mM Tris pH 7.5, 200 mM NaCl, 0.01% NP40 and CHAPS; EMSA: 25 mM Tris-HCl pH 7.5, 150 mM NaCl, 5 mM DTT, +/-10% glycerol, RT 30 min; NMR: 25 mM …
[3] = target: Oregon Green 488-labeled BRPF1 PZP domain (UniProt P55201); assay: FRET or BRET; HIFI-FRET titration; Atto647N-labeled mononucleosomes titrated against three concentrations of Oregon Green labeled PZP; 25 mM Tris 7.5, 200 mM NaCl, 0.01% NP40 and CHAPS; quadratic fit; apparent Kd
[4] = target: histone H3 tail H3 tail (Homo sapiens) (UniProt P68431); settings: cited from earlier work
[5] = target: NCP165, mononucleosome assembled with unlabeled Xenopus octamer on 165 bp 601 DNA (Xenopus); assay: AUC; sedimentation velocity; unlabeled NCP165 incubated with increasing molar ratios of PZP overnight at 4°C; 20 mM Tris 7.5, 50 mM NaCl, 2 mM arginine; 20°C, 40 000 rpm; free components also run alone
[6] = system: BRPF1 PZP domain; assay: HI-FI FRET; settings: 200 mM NaCl, HI-FI FRET: 25 mM Tris pH 7.5, 200 mM NaCl, 0.01% NP40 and CHAPS, EMSA: 25 mM Tris-HCl pH 7.5, 150 mM NaCl, 5 mM DTT, +/-10% glycerol, RT 30 min, NMR: 25 mM …
[7] = target: Atto647N-labeled NCP165 (Xenopus octamer labeled at H4E63C, 165 bp 601 DNA) (Xenopus); assay: FRET or BRET; HIFI-FRET Job plot (continuous variation); Oregon Green 488-PZP donor and Atto647N-NCP165 acceptor; total concentration of reactants constant at 1 μM, 50 nM steps

601L Cy3-Cy5 NCP with LexA site
K half [1]: 4 µM
K half [2]: 2000 nM

Atto647N-labeled NCP147 (Xenopus octamer labeled at H4E63C, 147 bp 601 DNA) (complex)
Kd [3]: > 1000 nM

Atto647N-labeled NCP165 (Xenopus octamer labeled at H4E63C, 165 bp 601 DNA) (complex)
Kd [3]: 273 nM

BRPF1 PZP PZP (from UniProt P55201)
Kd [4]: 12000 nM

BRPF1 PZP domain (amino acids 267–454) (from UniProt P55201 267-454) (domain or fragment)
stoichiometry N [5]: 2

NCP147 (FRET)
Kd ([6]; apparent, curve did not plateau): > 1000 nM

NCP165
Kd ([6]; apparent Kd): 273 nM

Oregon Green 488-labeled BRPF1 PZP domain (from UniProt P55201 267-454) (domain or fragment)
stoichiometry N [7]: 1.8
